In US20220289791A1, “LACTATE DEHYDROGENASE INHIBITOR POLYPEPTIDES FOR USE IN THE TREATMENT OF CANCER” (UNIVERSITÉ CATHOLIQUE DE LOUVAIN, priority 2019, published 2022):
*1 amine or outer side, *2 acyl side, *3 side chain or, on linkers, in order; H or OH if unused. Where a SMILES comes first, the peptide text is derived from it. Bridges are numbered along the chain shown (N, C = ends). Where no end group is shown, it is not given here. [ ]: non-standard residue; d: D form. α,α'‑bisbromoxylene = α,α'-bisbromoxylene, a linker that cyclises the cysteines (bisbromoxylene cysteine cyclisation); C6F4(1,4-diyl) = Fc1c(F)c([*:2])c(F)c(F)c1[*:1]; mXylylene = c1cc(C[*:1])cc(C[*:2])c1; oXylylene = c1ccc(C[*:2])c(C[*:1])c1; pXylylene = c1cc(C[*:2])ccc1C[*:1]; Ala(cPr) = N[C@@H](CC1CC1)C(=O)O; tBuAla = CC(C)(C)C[C@H](N)C(=O)O; Aib = CC(C)(N)C(=O)O

Biological target: T1, LDHBtr (Homo sapiens, UniProt P07195)
Assay: NMR WaterLOGSY binding screening
Conditions: not given
Description: All experiments were acquired on a Bruker Ascend Avance III 600 MHz equipped with a broadband cryoprobe (Bruker® GmBH, Germany)
NMR WaterLOGSY was performed on samples prepared in 10% D2O buffer containing 50 mM sodium phosphate buffer, pH 7.6 and 100 mM NaCl. The concentration of LDH subunits was 15-20 μM. Ligand binding was detected using a NMR WaterLOGSY ephogsygpno.2 advance-version sequence with a […]. Water signal suppression was achieved using excitation sculpting scheme and a 50 ms spinlock was used to suppress protein background signal. For each experiment, 512 scans were collected to yield a 16K points FID. NMR WaterLOGSY intensity was corrected by plotting the intensity difference of the ligand NMR WaterLOGSY spectra recorded in the presence and absence of protein.
For NMR WaterLOGSY screening experiments a correction factor was applied to account for slight concentration variation between samples. To do so, 8 scans 1H NMR spectra with 50 ms spinlock were recorded before NMR WaterLOGSY experiments. The intensity ratio of the aliphatic region (0.700 ppm to 0.955 ppm) with and without protein was used as a correction factor to compare the NMR WaterLOGSY intensity of the polypeptides of interest with and without LDH subunits. An arbitrary threshold of 0.1, corresponding to a 10% decrease in the NMR WaterLOGSY signal intensity between the spectra with and without protein, was set to discriminate between binders and non-binders.

T1 sequence (P07195 21-334): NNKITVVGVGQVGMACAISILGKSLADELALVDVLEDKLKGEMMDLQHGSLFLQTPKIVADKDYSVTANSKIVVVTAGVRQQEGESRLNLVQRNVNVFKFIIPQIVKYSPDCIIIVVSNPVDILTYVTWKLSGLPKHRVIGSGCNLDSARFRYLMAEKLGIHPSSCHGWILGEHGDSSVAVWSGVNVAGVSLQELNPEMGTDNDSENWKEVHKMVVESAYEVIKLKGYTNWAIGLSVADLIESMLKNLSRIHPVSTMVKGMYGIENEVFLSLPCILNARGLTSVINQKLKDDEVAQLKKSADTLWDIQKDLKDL

Q: Which “NMR WaterLOGSY signal / saturation transfer” value does the source give for `CC[C@H](C)[C@H](NC(=O)[C@H](CC(C)C)NC(=O)[C@H](CCCCN)NC(=O)[C@H](CCC(=O)O)NC(=O)[C@H](CCCCN)NC(=O)[C@H](CC(C)C)NC(=O)[C@@H](NC(=O)[C@H](C)N)[C@@H](C)O)C(=O)N[C@@H](C)C(=O)N1CCC[C@H]1C(=O)N[C@H](C(=O)N[C@@H](C)C(=O)N[C@@H](CCC(=O)O)C(N)=O)C(C)C` [LB13, ATLKEKLIAPVAE] (H-ATLKEKLIAPVAE-NH2; N-terminus assumed) here?
A: exact same NMR WaterLOGSY spectrum than LB19

Same assay, conditions: cyclic peptides at 800 μM

Q: For “ACLKECLI [VS-142-BisAlk, cyclic peptide, cysteines alkylated using α,α′ bisbromoxylene]”, which “Binding using WaterLOGSY (800 μM)” value is on record?
A: + (binders)

Q: Which “Binding using WaterLOGSY (800 μM)” value does the source give for “ACTLKCKLI (linker 2-6 via α,α'‑bisbromoxylene (inferred)) [LT021, cyclic peptide, cysteines alkylated using α,α′ bisbromoxylene]” here?
A: + (binders)

Same assay, conditions: linear peptides at 800 μM, LDHBtr 15 μM

Q: `CC[C@H](C)[C@H](NC(=O)[C@H](CC(C)C)NC(=O)[C@H](CCCCN)NC(=O)[C@H](CCC(=O)O)NC(=O)[C@H](CCCCN)NC(=O)[C@H](CC(C)C)NC(=O)[C@@H](NC(=O)[C@H](C)N)[C@@H](C)O)C(=O)N[C@@H](C)C(=O)N1CCC[C@H]1C(=O)N[C@H](C(=O)N[C@@H](C)C(=O)N[C@@H](CCC(=O)O)C(N)=O)C(C)C` [LB13, ATLKEKLIAPVAE] (H-ATLKEKLIAPVAE-NH2; N-terminus assumed) was tested. Which “Binding using WaterLOGSY (800 μM)” value did it give?
A: + (binders)

Q: Which “Binding using WaterLOGSY (800 μM)” value does the source give for “AALKEKLI [LB8-A1, LB8 structural analogue]” here?
A: − (non-binders)

Q: Which “Binding using WaterLOGSY (800 μM)” value does the source give for “ATAKEKLI (LB8-A2) [LB8 structural analogue]” here?
A: + (binders)

Q: Which “Binding using WaterLOGSY (800 μM)” value does the source give for “ATL(Aib)E(Aib)LI (ATL[Aib]E[Aib]LI; not fully specified (C-terminus)) [LB8-Aib3, LB8 structural analogue]” here?
A: + (binders)

Q: For “ATL(Aib)EKLI (ATL[Aib]EKLI; not fully specified (C-terminus)) [LB8-Aib1, LB8 structural analogue]”, which “Binding using WaterLOGSY (800 μM)” value is on record?
A: + (binders)

Q: Which “Binding using WaterLOGSY (800 μM)” value does the source give for “ATLAEALI (LB8-A3-A5) [LB8 structural analogue]” here?
A: + (binders)

Q: How did the “Binding using WaterLOGSY (800 μM)” value turn out when “ATLAEKLI (LB8-A3) [LB8 structural analogue]” was run?
A: + (binders)

Q: For “ATLKAKLI (LB8-A4) [LB8 structural analogue]”, which “Binding using WaterLOGSY (800 μM)” value is on record?
A: + (binders)

Q: Which “Binding using WaterLOGSY (800 μM)” value does the source give for ATLKDQLI [LA8, linear polypeptide] here?
A: + (binders)

Q: “ATLKDQLIYNLLKEEQTPQ (LA19) [linear polypeptide]” was tested. Which “Binding using WaterLOGSY (800 μM)” value did it give?
A: + (binders)

Q: How did the “Binding using WaterLOGSY (800 μM)” value turn out when “ATLKE(Aib)LI (ATLKE[Aib]LI; not fully specified (C-terminus)) [LB8-Aib2, LB8 structural analogue]” was run?
A: + (binders)

Q: Which “Binding using WaterLOGSY (800 μM)” value does the source give for “ATLKEALI (LB8-A5) [LB8 structural analogue]” here?
A: + (binders)

Q: With “ATLKEKL (LB8-AL7) [LB8 structural analogue]” as the compound, how does the “Binding using WaterLOGSY (800 μM)” value read?
A: − (non-binders)

Q: “ATLKEKLA (LB8-A7) [LB8 structural analogue]” was tested. Which “Binding using WaterLOGSY (800 μM)” value did it give?
A: + (binders)

Q: With “ATLKEKLG (LB8-G8) [LB8 structural analogue]” as the compound, how does the “Binding using WaterLOGSY (800 μM)” value read?
A: + (binders)

Q: With “Ac-ATLKEKLI [Ac-LB8, LB8 structural analogue]” as the compound, how does the “Binding using WaterLOGSY (800 μM)” value read?
A: + (binders)

Q: With “Ac-TLKEKLI [LB8-AcTI7, LB8 structural analogue]” as the compound, how does the “Binding using WaterLOGSY (800 μM)” value read?
A: − (non-binders)

Q: For “GTLKEKLI (LB8-G1) [LB8 structural analogue]”, which “Binding using WaterLOGSY (800 μM)” value is on record?
A: + (binders)

Q: “TLKEKLI (LB8-TI7) [LB8-T17, LB8 structural analogue]” was tested. Which “Binding using WaterLOGSY (800 μM)” value did it give?
A: − (non-binders)

Biological target: T1, LDHBtr
Assay: Microscale thermophoresis (MST), Example 1
Format: binding
Conditions: linear peptides; read-out: Kd using MST experiment
Description: MST measurements were performed on a Nanotemper Monolith NT.115 instrument (Nanotemper Technologies®, GmbH) using Red-dye-NHS fluorescent labeling. Each LDH (WT or truncated) sample, purified to homogeneity, was labeled with the Monolith RED-NHS 2nd generation labeling dye according to the supplied protocol (Nanotemper Technologies®, GmbH). Measurements were performed in 50 mM Na-Phosphate pH 7.6 and 100 mM NaCl containing 0.05% Tween-20 in premium treated capillaries (Nanotemper Technologies®, GmbH). The final concentrations of either labeled protein in the assay were 100 nM. The ligands (NADH and peptides) were titrated in 1:1 dilutions following manufacturer's recommendations. All binding reactions were incubated 5′ at room temperature after loading into capillaries. Experiments were performed in triplicates using 40% LED power and medium MST power, LaserOn time was 20 sec, Laser Off time 3 sec. Linear octapeptides were evaluated for their thermophoretic pattern.

Q: With `CC[C@H](C)[C@H](NC(=O)[C@H](C)NC(=O)[C@H](CCCCN)NC(=O)[C@H](CCC(=O)O)NC(=O)[C@H](CCCCN)NC(=O)[C@H](CC(C)C)NC(=O)[C@@H](NC(=O)[C@H](C)N)[C@@H](C)O)C(N)=O` [LB8-A6, ATLKEKAI] (H-ATLKEKAI-NH2) as the compound, how does the Kd read?
A: > 10000 µM

Q: How did the Kd turn out when `CC[C@H](C)[C@H](NC(=O)[C@H](CC(C)C)NC(=O)[C@H](CCCCN)NC(=O)[C@H](CCC(=O)O)NC(=O)[C@H](CCCCN)NC(=O)CNC(=O)[C@@H](NC(=O)[C@H](C)N)[C@@H](C)O)C(N)=O` [LB8-G3, ATGKEKLI] (H-ATGKEKLI-NH2) was run?
A: > 10000 µM

Biological target: truncated LDHB (LDHBtr) (Homo sapiens, UniProt P07195)
Assay: Microscale thermophoresis (MST), Example 2, macrocycles against truncated LDHB
Format: binding
Conditions: not given
Description: MST measurements were performed on a Nanotemper Monolith NT.115 instrument (NanoTemper Technologies®) using Red-dye-NHS fluorescent labeling. Each LDH sample, purified to homogeneity, was labeled with the Monolith Red-dye-NHS 2nd generation labeling dye (NanoTemper Technologies®), according to the manufacturer's instructions. Measurements were performed in 50 mM sodium phosphate, pH 7.6, and 100 mM NaCl containing 0.05% Tween-20 in premium-treated capillaries (NanoTemper Technologies®). The final concentrations of either labeled protein in the assay were 100 nM. The ligands (NADH and peptides) were titrated in 1:1 dilutions following manufacturer's recommendations. All binding reactions were incubated for 5 min at room temperature after loading into capillaries. Experiments were performed in triplicates using 40% LED power, medium MST power, Laser On time 20 s and Laser Off time 3 s. Peptides were evaluated for their thermophoretic pattern, and Kd's were extracted from raw data at a 10 to 20 s MST on time according to manufacturer's instructions. Regarding interaction of 7 with LDH5, Kd was extracted from the raw fluorescence. A denaturation test was performed accordingly to manufacturer recommendation and excluded any nonspecific spectral interaction between 7 and the red-dye. All Kd's of interacting macrocycles and peptides were obtained in triplicate and corrected by taking into account the molecular weight of the TFA counter ion.

Chain of truncated LDHB (LDHBtr) (P07195 21-334): as above

Q: With `CC[C@H](C)[C@H](NC(=O)[C@H](CC(C)C)NC(=O)[C@H](CCCCN)NC(=O)[C@@H]1CSc2c(F)c(F)c(c(F)c2F)SC[C@H](N)C(=O)N[C@@H]([C@@H](C)O)C(=O)N[C@@H](CC(C)(C)C)C(=O)N[C@@H](CCCCN)C(=O)N1)C(N)=O` [CT-44, CT(mlL)KCKLI] (H-CT[tBuAla]KCKLI-NH2; linker 1-5 via C6F4(1,4-diyl); N-terminus assumed) as the compound, how does the “MST binding to LDHBtr” value read?
A: did not affect the binding properties

Q: How did the “MST binding to LDHBtr” value turn out when `CC[C@H](C)[C@H](NC(=O)[C@H](CC1CC1)NC(=O)[C@H](CCCCN)NC(=O)[C@@H]1CSc2c(F)c(F)c(c(F)c2F)SC[C@H](N)C(=O)N[C@@H]([C@@H](C)O)C(=O)N[C@@H](CC(C)C)C(=O)N[C@@H](CCCCN)C(=O)N1)C(N)=O` [CT-45, CTLKCK(cpA)I] (H-CTLKCK[Ala(cPr)]I-NH2; linker 1-5 via C6F4(1,4-diyl); N-terminus assumed) was run?
A: unaltered Kd value, or even a slightly improved Kd value

Same assay, conditions: MST traces at 10 s to 20 s on time

Q: How did the Kd turn out when `CC[C@H](C)[C@H](NC(=O)[C@H](CC(C)C)NC(=O)[C@H](CCCCN)NC(=O)[C@H](CCC(=O)O)NC(=O)[C@@H]1CSCc2cccc(c2)CSC[C@H](N)C(=O)N[C@@H](C)C(=O)N[C@@H]([C@@H](C)O)C(=O)N[C@@H](CC(C)C)C(=O)N1)C(N)=O` [MP6, CATLCEKLI] (H-CATLCEKLI-NH2; linker 1-5 via mXylylene) was run?
A: > 1000 µM

Q: `CC[C@H](C)[C@H](NC(=O)[C@H](CC(C)C)NC(=O)[C@H](CCCCN)NC(=O)[C@@H]1CSCc2ccccc2CSC[C@H](N)C(=O)N[C@@H]([C@@H](C)O)C(=O)N[C@@H](CC(C)C)C(=O)N[C@@H](CCCCN)C(=O)N1)C(N)=O` [MP8, CTLKCKLI] (H-CTLKCKLI-NH2; linker 1-5 via oXylylene; N-terminus assumed) was tested. Which Kd did it give?
A: 25 µM

Q: For `CC[C@H](C)[C@H](NC(=O)[C@H](CC(C)C)NC(=O)[C@H](CCCCN)NC(=O)[C@@H]1CSCc2ccc(cc2)CSC[C@H](N)C(=O)N[C@@H]([C@@H](C)O)C(=O)N[C@@H](CC(C)C)C(=O)N[C@@H](CCCCN)C(=O)N1)C(N)=O` [MP9, CTLKCKLI] (H-CTLKCKLI-NH2; linker 1-5 via pXylylene; N-terminus assumed), which Kd is on record?
A: 113 µM

Q: With `CC[C@H](C)[C@H](NC(=O)[C@H](CC(C)C)NC(=O)[C@H](CCCCN)NC(=O)[C@@H]1CC(=O)NCCCC[C@H](NC(C)=O)C(=O)N[C@@H]([C@@H](C)O)C(=O)N[C@@H](CC(C)C)C(=O)N[C@@H](CCCCN)C(=O)N1)C(N)=O` [MP10, Ac-KTLKDKLI] (Ac-KTLKDKLI-NH2; lactam 1-5) as the compound, how does the Kd read?
A: 142 µM

Q: How did the Kd turn out when `CC[C@H](C)[C@H](NC(=O)[C@H](CC(C)C)NC(=O)[C@H](CCCCN)NC(=O)[C@@H]1CCC(=O)N[C@@H](C)C(=O)N[C@@H]([C@@H](C)O)C(=O)N[C@@H](CC(C)C)C(=O)N[C@@H](CCCCN)C(=O)N1)C(N)=O` [MP11, ATLKEKLI] (ATLKEKLI-NH2; lactam N-5) was run?
A: 465 µM
